Data taken from patent publication US20240117043A1 (SHANGHAI JUNSHI BIOSCIENCES, published 2024).

Tests used:
[1] = biological target: T1, recombinant human HX1 hCD112R Fc (human, UniProt Q6DKI7 41-171, limits assumed); experiment: ELISA, relative binding activity, sample kept at 40 C for 2 weeks
T1 construct: Coated antigen of the ELISA (Suzhou Junmeng); also called human CD112R; not shown: Fc part
T1 sequence (looked up): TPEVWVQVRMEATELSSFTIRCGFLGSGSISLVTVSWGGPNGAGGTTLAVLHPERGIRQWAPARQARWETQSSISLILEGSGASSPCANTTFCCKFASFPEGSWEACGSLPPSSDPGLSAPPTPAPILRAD
Protocol: (§1) The antibody samples were exchanged into a pH 5.5 buffer system (20 mM histidine-histidine hydrochloride buffer, 230 mM trehalose) with the concentration of the samples controlled at about 5 mg/mL, and the buffer was aliquoted into vials at 500 μL/vial. The vials were placed in a 40° C. incubator to test stability at 0 W, 2 W and 4 W. Samples were sent for analysis according to Table 2. Stability was assessed by the following parameters: (a) the content of antibody monomers, aggregates or fragments determined by SEC-HPLC (size exclusion chromatography); (b) the molecular weight of the antibody determined by CE-SDS (sodium dodecyl sulfate capillary electrophoresis); and (c) the bioactivity of the antibody determined by an ELISA or reporter gene assay.

[2] = biological target: T2, recombinant human TIGIT (His Tag) (human, UniProt Q495A1 22-141); experiment: as above
T2 construct: Coated antigen of the ELISA; not shown: His tag
T2 sequence (looked up): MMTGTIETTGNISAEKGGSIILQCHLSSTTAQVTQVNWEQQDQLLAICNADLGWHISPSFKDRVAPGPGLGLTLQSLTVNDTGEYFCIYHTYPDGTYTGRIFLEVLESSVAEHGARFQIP
Protocol: as §1

[3] = biological target: T3, human CD112R-mFc protein (human, UniProt Q6DKI7 41-171, limits assumed); experiment: flow cytometry, blocking of 1 ug/mL CD112R-mFc binding to CHO hCD112 cells
T3 construct: also called human CD112R protein; not shown: mouse Fc (mFc)
T3 sequence (looked up): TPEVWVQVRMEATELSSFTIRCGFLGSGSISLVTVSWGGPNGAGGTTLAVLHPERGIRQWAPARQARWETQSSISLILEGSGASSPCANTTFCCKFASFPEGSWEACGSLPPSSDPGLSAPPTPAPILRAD
Protocol: CHO hCD112 cells (Chinese hamster ovary cells, human CD112 positive) were incubated with different concentrations of the bispecific antibodies JS-1, JS-3, JS-5 and JS-9 and 1 μg/mL human CD112R-mFc protein at 4° C. for 30 min, then washed twice and incubated with a fluorescence-labeled anti-mouse IgG secondary antibody (1:200) in a dark place at 4° C. for 30 min. Finally, the cells were collected using a flow cytometer (BD Canto II), and the fluorescent antibodies bound to the cell surface were detected. Raw data were analyzed using FlowJo to obtain MFI values, antibody dose-dependent binding curves (FIG. 4) were fitted using GraphPad, and IC50 was calculated. The positive controls were hu52 (a recombinant humanized anti-CD112R monoclonal antibody) and JS-Ref (Hengrui) (an anti-TIGIT/CD112R bispecific antibody of Hengrui, expressed and purified according to the sequence of the patent WO2021180205), and the negative control was an anti-KLH-hIgG1 antibody.

[4] = biological target: T1, recombinant human HX1 hCD112R Fc; experiment: ELISA, plate coated with recombinant human HX1 hCD112R Fc, detection with HRP anti-human IgG4 Fc; unit taken from the concentration axis [3a]
Protocol: 2. Procedures [0255] a. A 96-well plate was coated with 1.0 μg/mL recombinant human HX1 hCD112R Fc (Suzhou Junmeng) as the antigen at 100 μL/well and incubated at 37° C. for 1.5 h. [0256] b. The plate was washed 4 times with 300 μL/well 1×PBST, and 2% BSA was added at 200 μL/well. The plate was blocked at 37° C. for 1.5 h. [0257] c. The plate was washed 4 times with 300 μL/well 1×PBST, and serial dilutions of the bispecific antibodies JS-1,3,5,9 and a negative control: antibody (anti-KLH hIgG4) (initial concentration 3.0 μg/mL, 3-fold serially diluted to 12 concentration points, 100 μL/well) were added. The plate was incubated at 37° C. for 1 h. [0258] d. The plate was washed 4 times with 300 μL/well 1×PBST. [0259] e. 5000-fold diluted horseradish peroxidase (HRP)-conjugated mouse anti-human IgG4 Fc antibody (Southern Biotech, 9200-05) was added at 100 μL/well, and the plate was incubated at 37° C. for 1 h. [0260] f. The plate was washed 4 times with 300 μL/well 1×PBST. [0261] g. 0.1 mg/mL TMB was added at 100 μL/well, and after the plate was incubated at 37° C. for 15 min, a 2 M solution of hydrochloric acid was added at 100 μL/well to stop the reactions. […] The absorbance was measured at 450 nm/620 nm on a microplate reader, and data were analyzed using Graphpad Prism7.

[5] = biological target: T1, recombinant human HX1 hCD112R Fc; experiment: ELISA, relative binding activity, sample kept at 40 C for 4 weeks
Protocol: as §1

[6] = biological target: T2, recombinant human TIGIT (His Tag); experiment: as above
Protocol: as §1

[7] = biological target: T2, recombinant human TIGIT (His Tag); experiment: ELISA, plate coated with recombinant human TIGIT (His Tag), detection with HRP anti-human IgG4 Fc; unit taken from the concentration axis [2a]
Protocol: 2. Procedures [0241] a. A 96-well plate was coated with 1.5 μg/mL recombinant human TIGIT (His Tag) (Suzhou Junmeng) as the antigen at 100 μL/well and incubated at 37° C. for 1.5 h. [0242] b. The plate was washed 4 times with 300 μL/well 1×PBST, and 2% BSA was added at 200 μL/well. The plate was blocked at 37° C. for 1.5 h. [0243] c. The plate was washed 4 times with 300 μL/well 1×PBST, and serial dilutions of the bispecific antibodies JS-1,3,5,9 and a negative control: antibody (anti-KLH hIgG4) (initial concentration 1.0 μg/mL, 3-fold serially diluted to 12 concentration points, 100 μL/well) were added. The plate was incubated at 37° C. for 1 h. [0244] d. The plate was washed 4 times with 300 μL/well 1×PBST. [0245] e. 5000-fold diluted horseradish peroxidase (HRP)-conjugated mouse anti-human IgG4 Fc antibody (Southern Biotech, 9200-05) was added at 100 μL/well, and the plate was incubated at 37° C. for 1 h. […] The plate was washed 4 times with 300 μL/well 1×PBST. [0247] g. 0.1 mg/mL TMB was added at 100 μL/well, and after the plate was incubated at 37° C. for 15 min, a 2 M solution of hydrochloric acid was added at 100 μL/well to stop the reactions. [0248] h. The absorbance was measured at 450 nm/620 nm on a microplate reader, and data were analyzed using Graphpad Prism7.

Row | Binder | CD112R binding activity Elisa (%) [1] [%] | TIGIT binding activity Elisa (%) [2] [%] | IC50 [3] [nM] | EC50 [4] [µg/mL] | CD112R binding activity Elisa (%) [5] [%] | TIGIT binding activity Elisa (%) [6] [%] | EC50 [7] [µg/mL]
1 | bispecific antibody JS-1 (IgG4) (bispecific antibody, Three-chain knob-into-hole format: anti-TIGIT Fab arm and anti-CD112R scFv arm, IgG4 Fc) heavy: QVQLVQSGAEVKKPGASVKVSCKTSGYAFTEYTMHWVRQAPGKGLEWMGGINPNTGGTTYNQKFQGRVTLTVDKSSSTAYMELSSLRSEDTVVYYCAKLLRLMYYFDYWGQGTLVTVSSASTKGPSVFPLAPCSRSTSESTAALGCLVKDYFPEPVTVSWNSGALTSGVHTFPAVLQSSGLYSLSSVVTVPSSSLGTKTYTCNVDHKPSNTKVDKRVESKYGPPCPPCPAPEFLGGPSVFLFPPKPKDTLMISRTPEVTCVVVDVSQEDPEVQFNWYVDGVEVHNAKTKPREEQFNSTYRVVSVLTVLHQDWLNGKEYKCKVSNKGLPSSIEKTISKAKGQPREPQVYTLPPCQEEMTKNQVSLWCLVKGFYPSDIAVEWESNGQPENNYKTTPPVLDSDGSFFLYSRLTVDKSRWQEGNVFSCSVMHEALHNHYTQKSLSLSLGK light: not shown DIVMTQSPDSLAVSLGERATINCKASQSVSNDVAWYQQKPGQPPKLLIYYVSHRFTGVPDRFSGSGSGTDFTLTISSLQAEDVAVYFCHQAYRSPWTFGCGTKLEIKGGGGSGGGGSGGGGSGGGGSEVQLVESGGGLVKPGGSLRLSCAASGFTFSSYHMSWVRQAPGKCLELVSAINSNGINTYYLDTVKGRFTISRDNAKNSLYLQMNSLRAEDTAVYYCARHEDYYGFAMDYWGQGTLVTVSSGGGGSGGGGSESKYGPPCPPCPAPEFLGGPSVFLFPPKPKDTLMISRTPEVTCVVVDVSQEDPEVQFNWYVDGVEVHNAKTKPREEQFNSTYRVVSVLTVLHQDWLNGKEYKCKVSNKGLPSSIEKTISKAKGQPREPQVCTLPPSQEEMTKNQVSLSCAVKGFYPSDIAVEWESNGQPENNYKTTPPVLDSDGSFFLVSRLTVDKSRWQEGNVFSCSVMHEALHNRFTQKSLSLSLGK | 87 | 75 | 0.915 | 0.00403 | 86 | 97 | 0.0858
2 | bispecific antibody JS-3 (IgG4) (bispecific antibody, Two-chain scFab/scFab knob-into-hole format, IgG4 Fc) chain 1: not shown chain 2: DIVMTQSPDSLAVSLGERATINCKASQSVSNDVAWYQQKPGQPPKLLIYYVSHRFTGVPDRFSGSGSGTDFTLTISSLQAEDVAVYFCHQAYRSPWTFGQGTKLEIKRTVAAPSVFIFPPSDEQLKSGTASVVCLLNNFYPREAKVQWKVDNALQSGNSQESVTEQDSKDSTYSLSSTLTLSKADYEKHKVYACEVTHQGLSSPVTKSFNRGECSGGGSGGGSEGGGSEGGGSEGGGSEGGGSGGGSGEVQLVESGGGLVKPGGSLRLSCAASGFTFSSYHMSWVRQAPGKGLELVSAINSNGINTYYLDTVKGRFTISRDNAKNSLYLQMNSLRAEDTAVYYCARHEDYYGFAMDYWGQGTLVTVSSASTKGPSVFPLAPCSRSTSESTAALGCLVKDYFPEPVTVSWNSGALTSGVHTFPAVLQSSGLYSLSSVVTVPSSSLGTKTYTCNVDHKPSNTKVDKRVESKYGPPCPPCPAPEFLGGPSVFLFPPKPKDTLMISRTPEVTCVVVDVSQEDPEVQFNWYVDGVEVHNAKTKPREEQFNSTYRVVSVLTVLHQDWLNGKEYKCKVSNKGLPSSIEKTISKAKGQPREPQVCTLPPSQEEMTKNQVSLSCAVKGFYPSDIAVEWESNGQPENNYKTTPPVLDSDGSFFLVSRLTVDKSRWQEGNVFSCSVMHEALHNRFTQKSLSLSLGK | 98 | 88 | 0.696 | 0.00402 | 88 | 84 | 0.106
